{"source": "patent US20160177336A1", "about": "(EIDGENOESSISCHE TECHNISCHE HOCHSCHULE ZURICH, published 2016)", "binders": {"B1": {"name": "Isw2p (other, yeast, UniProt Q08773 1-1120, looked up)", "chain": "MTTQQEEQRSDTKNSKSESPSEVLVDTLDSKSNGSSDDDNIGQSEELSDKEIYTVEDRPPEYWAQRKKKFVLDVDPKYAKQKDKSDTYKRFKYLLGVTDLFRHFIGIKAKHDKNIQKLLKQLDSDANKLSKSHSTVSSSSRHHRKTEKEEDAELMADEEEEIVDTYQEDIFVSESPSFVKSGKLRDYQVQGLNWLISLHENKLSGILADEMGLGKTLQTISFLGYLRYVKQIEGPFLIIVPKSTLDNWRREFLKWTPNVNVLVLHGDKDTRADIVRNIILEARFDVLITSYEMVIREKNALKRLAWQYIVIDEAHRIKNEQSALSQIIRLFYSKNRLLITGTPLQNNLHELWALLNFLLPDIFGDSELFDEWFEQNNSEQDQEIVIQQLHSVLNPFLLRRVKADVEKSLLPKIETNVYVGMTDMQIQWYKSLLEKDIDAVNGAVGKREGKTRLLNIVMQLRKCCNHPYLFEGAEPGPPYTTDEHLIFNSGKMIILDKLLKRLKEKGSRVLIFSQMSRLLDILEDYCYFRDFEYCRIDGSTSHEERIEAIDEYNKPNSEKFVFLLTTRAGGLGINLVTADTVILFDSDWNPQADLQAMDRAHRIGQKKQVHVYRFVTENAIEEKVIERAAQKLRLDQLVIQQGTGKKTASLGNSKDDLLDMIQFGAKNMFEKKASKVTVDADIDDILKKGEQKTQELNAKYQSLGLDDLQKFNGIENQSAYEWNGKSFQKKSNDKVVEWINPSRRERRREQTTYSVDDYYKEIIGGGSKSASKQTPQPKAPRAPKVIHGQDFQFFPKELDALQEKEQLYFKKKVNYKVTSYDITGDIRNEGSDAEEEEGEYKNAANTEGHKGHEELKRRIEEEQEKINSAPDFTQEDELRKQELISKAFTNWNKRDFMAFINACAKYGRDDMENIKKSIDSKTPEEVEVYAKIFWERLKEINGWEKYLHNVELGEKKNEKLKFQETLLRQKIEQCKHPLHELIIQYPPNNARRTYNTLEDKFLLLAVNKYGLRADKLYEKLKQEIMMSDLFTFDWFIKTRTVHELSKRVHTLLTLIVREYEQPDANKKKRSRTSATREDTPLSQNESTRASTVPNLPTTMVTNQKDTNDHVDKRTKIDQEA", "notes": "Co-expressed with Itc1p in insect cells from MultiBac baculovirus; also called 130 kDa Isw2p; subunit of the yeast Isw2 chromatin remodelling complex"}}, "target": "T1, Itc1p (yeast, UniProt P53125 1-1264)", "T1 construct": "Co-expressed with Isw2p in insect cells from MultiBac baculovirus; also called 145 kDa Itc1p; subunit of the yeast Isw2 chromatin remodelling complex", "T1 sequence (looked up)": "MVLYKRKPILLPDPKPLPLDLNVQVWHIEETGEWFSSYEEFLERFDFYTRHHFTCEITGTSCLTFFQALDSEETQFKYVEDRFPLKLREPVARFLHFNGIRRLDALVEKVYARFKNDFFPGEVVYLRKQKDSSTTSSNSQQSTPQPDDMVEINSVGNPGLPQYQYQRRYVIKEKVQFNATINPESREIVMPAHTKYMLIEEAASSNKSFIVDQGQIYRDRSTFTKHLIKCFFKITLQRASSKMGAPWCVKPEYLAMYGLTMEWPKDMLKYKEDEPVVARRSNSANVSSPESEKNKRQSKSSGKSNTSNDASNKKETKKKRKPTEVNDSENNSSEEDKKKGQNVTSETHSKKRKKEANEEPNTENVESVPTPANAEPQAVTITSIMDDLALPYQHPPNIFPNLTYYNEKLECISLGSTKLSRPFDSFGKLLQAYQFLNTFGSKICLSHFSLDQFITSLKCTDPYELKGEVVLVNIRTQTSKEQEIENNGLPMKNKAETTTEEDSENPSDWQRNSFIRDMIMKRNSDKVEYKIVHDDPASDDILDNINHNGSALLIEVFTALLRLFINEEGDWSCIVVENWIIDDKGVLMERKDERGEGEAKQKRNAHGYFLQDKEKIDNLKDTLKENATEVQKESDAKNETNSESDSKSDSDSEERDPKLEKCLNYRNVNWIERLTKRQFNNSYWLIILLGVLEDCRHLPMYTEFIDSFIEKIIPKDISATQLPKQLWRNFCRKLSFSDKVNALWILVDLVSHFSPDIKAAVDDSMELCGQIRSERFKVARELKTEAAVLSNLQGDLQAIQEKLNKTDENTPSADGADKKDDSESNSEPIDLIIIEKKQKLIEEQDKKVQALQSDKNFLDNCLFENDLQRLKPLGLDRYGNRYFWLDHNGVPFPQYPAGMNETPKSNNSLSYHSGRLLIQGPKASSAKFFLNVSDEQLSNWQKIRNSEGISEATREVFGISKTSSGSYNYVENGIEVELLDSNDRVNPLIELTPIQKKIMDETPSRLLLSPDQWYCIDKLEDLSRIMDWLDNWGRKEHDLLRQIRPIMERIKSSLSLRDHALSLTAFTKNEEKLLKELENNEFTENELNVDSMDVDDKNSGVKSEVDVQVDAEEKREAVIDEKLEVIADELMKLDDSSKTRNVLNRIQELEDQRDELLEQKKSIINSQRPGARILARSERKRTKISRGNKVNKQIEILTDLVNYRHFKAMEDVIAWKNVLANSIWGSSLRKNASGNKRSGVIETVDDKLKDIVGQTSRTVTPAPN", "assay": "co-expression in insect cells from MultiBac baculovirus; complex purified (FIG. 8)", "excerpt": "In a test experiment the yeast Isw2 chromatin remodelling complex consisting of the 130 kDa Isw2p and the 145 kDa Itc1p proteins was expressed. One version of MultiBac was created with both proteins integrated at the attTn7 site, and a second version with Isw2p integrated at the attTn7 site and Itc1p inserted at the LoxP site. […] For further detail see FIG. 8.", "data": [{"binder": "B1", "values": [{"measurement": "binding result", "result": "binds"}]}]}
